Source: the supplement of paper PMC12764529
± gives the half width of the 95% confidence interval.

Key:
[1] = folding stability dG unfold from chymotrypsin proteolysis; higher = more stable
Outline: (§1)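 Unfolding free energy was derived, per protease or combined, against a sequence-predicted unfolded-state K50 and a shared folded-state K50, starting from K50 inferred by Bayesian fitting of sequencing counts. Digestion with trypsin and chymotrypsin was carried out on designed mini-proteins under 80 residues without cysteine in a PA-tagged cDNA display construct. Only designs with AlphaFold2 dimer inter-PAE above 15 were kept.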

[2] = folding stability dG unfold from trypsin proteolysis; higher = more stable
Outline: as §1

[3] = folding stability dG unfold (combined trypsin and chymotrypsin); higher = more stable
Outline: as §1

Sequence	folding stability dG unfold [1]	folding stability dG unfold [2]	folding stability dG unfold [3]
SAGGSAGGSAGKLEVVELEDGYLVVYDPETGLIVLYTPEEVVAELLDAFDPDKPVVVVEFSAGGSAGGSAGG [r11_374_TrMRF]	0.689 ± 0.064 kcal/mol	1.46 ± 0.091 kcal/mol	1.17 ± 0.11 kcal/mol
SAGEIEEILIENPETNEVYRITKVETTVELDEDGNLHTTTKVEIEKVEPPPPPEPEVEVEVKPGEKVELSAG [r5_212_TrROS_Hall]	-0.00362 ± 0.42 kcal/mol	0.225 ± 0.068 kcal/mol	< -1 kcal/mol
SAGGSAGGSAGAVLPIKNGWVAVIHMGPDGRVTINIYPPDKPREIEIPVNEPMEIEIFPWSAGGSAGGSAGG [r11_164_TrROS]	1.3 ± 0.058 kcal/mol	2.08 ± 0.053 kcal/mol	1.78 ± 0.091 kcal/mol
SAGGPNKPIKIKIMIWRDPGGWYIAIRIPDGNTRMFKSPEQIKSILEKFPGLKIDEIEIIPPDQMKKLSAGG [r13_730_TrROS]	2.23 ± 0.073 kcal/mol	1.7 ± 0.025 kcal/mol	2 ± 0.079 kcal/mol
SAGGSAGGSMKKITLTLTFPNGTTETLDITPLLEKSGLSPEEAIQLLKEELPENVTYKVTTEGSAGGSAGGS [r12_399_JUSTAS]	3.152 ± 0.03 kcal/mol	2.69 ± 0.083 kcal/mol	3.01 ± 0.084 kcal/mol
SAGGSAGGSELPIKEITVTSYDPKTGKYTVTITQGEGPTYTTTATSPEEVKKRYPDVKVTTSGSAGGSAGGS [r12_403_JUSTAS]	0.786 ± 0.035 kcal/mol	0.434 ± 0.053 kcal/mol	0.718 ± 0.056 kcal/mol
SAGGSAPVKLVVVYDEKTGEYRILAETPEGPVVFPFPRELFENIPLEDIAKLLNLEITEAVIVPNPSAGGSA [r15_801_TrMRF]	3.67 ± 0.13 kcal/mol	2.63 ± 0.086 kcal/mol	3.38 ± 0.13 kcal/mol
SAGGSAGGSAGLFPGPENIPKVSITPFEVENPLDDYTVTLYRVDFPDLGLSLPAALVSKRSAGGSAGGSAGG [r17_31_TrMRF]	1.6 ± 0.07 kcal/mol	0.698 ± 0.15 kcal/mol	1.36 ± 0.16 kcal/mol
SAGGSAGGSAGGMVVLENGDEVIVETFEFEEPVLDDVSEELREELGVVKVTVTKVTVIRRSAGGSAGGSAGG [r7_324_JUSTAS]	1.15 ± 0.059 kcal/mol	1.08 ± 0.069 kcal/mol	1.11 ± 0.13 kcal/mol
SAGGSPMTITMWFPVDSVEQAKDLINPNFPDYDVKVDNIKPENGWVRVKYTWPNGKPQEREIPIKKSAGGSA [r2_201_TrROS]	0.324 ± 0.38 kcal/mol	-0.226 ± 0.33 kcal/mol	0.147 ± 0.39 kcal/mol
SKVTIYFPNMPPEEIIDAIRKNPGKPVEIWMMPNNPDRFKNWLQDAKIEVEPQPNPDGQPWVKMEIEVPDSA [r9_1138_TrROS]	0.969 ± 0.095 kcal/mol	0.571 ± 0.035 kcal/mol	0.794 ± 0.078 kcal/mol
SAGGGPDLPGEVEVEVEITRVEFDPETGELRVEAEATFPDGLVAKVKITFPEPGDLDKFEVEVEVEPASAGG [r13_894_TrMRF]	1.68 ± 0.071 kcal/mol	1.5 ± 0.052 kcal/mol	1.59 ± 0.035 kcal/mol
SSPLDPAGRFTIEVVFTTSADGTLTATFTITAPGGVPLKTLTRSFTNPSPGKAAAVEEAEALKAEIEAAASA [r9_739_JUSTAS]	2.35 ± 0.047 kcal/mol	1.3 ± 0.025 kcal/mol	1.97 ± 0.064 kcal/mol
SAGGSAGGSPIDITDIEVEQHEHPDGQQYHEVKIRLPDGRPIKIWMSPGSTPDQVLKQAKEFISAGGSAGGS [r12_1047_TrROS]	-0.0705 ± 0.26 kcal/mol	-0.137 ± 0.12 kcal/mol	0.0598 ± 0.17 kcal/mol
SAGGSAGGSAGKPVLTLTLRLEDGTLVRIEFDLETEELTVRVLDLETGEEKEFTFKLPAPSAGGSAGGSAGG [r11_931_TrROS_Hall]	4.07 ± 0.074 kcal/mol	3.51 ± 0.22 kcal/mol	3.9 ± 0.14 kcal/mol
SPEVPPGKTLEREFKGVPVRLTREEESGTIHITVYPPTDPSKPLYEAEFSPDELRPIPLPPEVAAALAAESA [r9_1051_JUSTAS]	0.0553 ± 0.1 kcal/mol	-0.681 ± 0.24 kcal/mol	-0.13 ± 0.16 kcal/mol
SGSSMGPPDVKERLIDIPSSELSPEVLEEIIEEAIKEGYSVVTINIPEGKYITIELKDGKVTKITEKSLESA [r9_905_JUSTAS]	1.75 ± 0.047 kcal/mol	1.84 ± 0.035 kcal/mol	1.76 ± 0.088 kcal/mol
SAGGKTLVIKMKFKTKEEAEEAIKKLLEELGLPEGAKIEVTVERDENGELTVTITITVKDPEVLKALSAGGS [r8_85_TrROS_Hall]	2.66 ± 0.036 kcal/mol	2 ± 0.11 kcal/mol	2.48 ± 0.076 kcal/mol
SAGGLDGDMKVDEMEHDPNNGTYRYKAEAGDQWWTFEMKVVPVIPPIPISISPEDLQEGNWNISIWFSAGGS [r16_809_TrROS]	2.39 ± 0.08 kcal/mol	1.46 ± 0.05 kcal/mol	2.09 ± 0.2 kcal/mol
SAGGSAGGSAKVILLPSPDDSVVLITVHPDDTVEVTVLRLNPEDPTYEPVTVTVPLSYPELFSAGGSAGGSA [r18_503_TrMRF]	0.791 ± 0.19 kcal/mol	0.903 ± 0.044 kcal/mol	0.843 ± 0.18 kcal/mol
SAGGPRITITYPLPPGDIEKIEKLAKEALDNGDNVDVNIPHPNGWYVTLTVDPPNGKIEEVEWQPPDKSAGG [r13_873_TrROS]	0.598 ± 0.061 kcal/mol	0.571 ± 0.076 kcal/mol	0.499 ± 0.12 kcal/mol

Sequence	folding stability dG unfold [1]	folding stability dG unfold [2]	folding stability dG unfold [3]
SAGGSAGGSAGGMKKYKITVYDEKTGEKHTIEIEMSEEELEELAKKLAEKHNVKVRIEKVSAGGSAGGSAGG [r7_562_TrROS_Hall]	4.27 ± 0.052 kcal/mol	2.73 ± 0.095 kcal/mol	3.91 ± 0.062 kcal/mol
SAGGSAGGGRLLIDRAFDSLEDIEEFLRELETPALVHLPDGTELFYERGDGFTEIHVIPPGELGSAGGSAGG [r6_641_TrMRF]	1.26 ± 0.053 kcal/mol	0.277 ± 0.072 kcal/mol	1 ± 0.099 kcal/mol
SAGGKTVEIKVKVKSLEELKAAIEALKKAGIKDVKVTKIELEKNEDGSLYARVTIEVEPAPEVVEEKESAGG [r13_174_TrROS_Hall]	3.08 ± 0.073 kcal/mol	2.78 ± 0.095 kcal/mol	3.15 ± 0.2 kcal/mol
SAGGSAGGSAGGFNIKLDVEIDPENYVIKNKLEVRDGGEERRFEMWIPIRVPPADPDDPSAGGSAGGSAGGS [r10_1049_TrROS]	1.39 ± 0.27 kcal/mol	-0.135 ± 0.29 kcal/mol	0.852 ± 0.21 kcal/mol
SIRPGQRIDSLEEVKEIAHRIAEEIQKEHGHPYKVTVNVEYYPEEDGRWYVKAKWYMPNNGKPIREITIMSA [r9_794_TrROS]	1.88 ± 0.1 kcal/mol	1.53 ± 0.059 kcal/mol	1.71 ± 0.19 kcal/mol
SDREFEAVFLVETPEEVEALARELALPGVEVEVHVLPAPYLDPETGEPRPFLLAVVRVRVPVPPPGPGALSA [r9_962_TrMRF]	2.56 ± 0.055 kcal/mol	0.969 ± 0.044 kcal/mol	2.12 ± 0.088 kcal/mol
SAGGEKVVLEIVLPPELENLTPEELEALKNITLPNGFKITDIELVEENGRLVIRITVDSPEAAEALLKSAGG [r13_269_TrROS_Hall]	2.23 ± 0.056 kcal/mol	2.04 ± 0.086 kcal/mol	2.19 ± 0.22 kcal/mol
SAGRIRKAIREAFGMDITSIDIDVKENPNGSKKVEIDIHMNNPSQRRRMADAIIEELGYPIKEIEITPMSAG [r5_542_TrROS]	0.558 ± 0.2 kcal/mol	0.748 ± 0.24 kcal/mol	0.629 ± 0.17 kcal/mol
SAGGKTLYVRIIIENKKTGKKEEKIIKIKNVKTLDELLEKAKKEAEKKGYKIKKIEVYDKKTGKKLKLSAGG [r13_771_TrROS_Hall]	1.28 ± 0.27 kcal/mol	1.79 ± 0.088 kcal/mol	1.73 ± 0.39 kcal/mol
SAGGSAGGSAGGPTIVIKDVKGLTPEQAEALARDLLKELGLEDADVRLERGEDGDLTFTYSAGGSAGGSAGG [r7_810_TrMRF]	0.79 ± 0.14 kcal/mol	1.68 ± 0.034 kcal/mol	1.26 ± 0.11 kcal/mol
SAGGLYVFDKNGKIISKVPKVEPIPIVITFPDGEKVLFEKYPGLNIIVVSYEGENPEKVKEAVKKILSSAGG [r13_701_TrMRF]	1.06 ± 0.14 kcal/mol	0.835 ± 0.075 kcal/mol	0.977 ± 0.13 kcal/mol
SAGGGMRAVEVTVTLTVPSSTSVEEAVERVKAEFEAAGLEAEPVSVTVTPVPGSVTVTVRLRVLRPPASAGG [r13_351_JUSTAS]	3.48 ± 0.049 kcal/mol	2.31 ± 0.04 kcal/mol	3.19 ± 0.063 kcal/mol
SAGGSAGGAPPDARVTIEVELKNPDGTPISEEEVIEKLKPLGLEPVEIDVDPETGKVTITVRVLSAGGSAGG [r6_774_JUSTAS]	1.04 ± 0.092 kcal/mol	1.69 ± 0.053 kcal/mol	1.41 ± 0.083 kcal/mol
SMTKTIPVTIEVDPSLSEEEIEALVEKVKEEIKEKAEAEGGKVKVTVTIEPDPNKPVVHGTITITKPKKLSA [r9_1161_JUSTAS]	-0.499 ± 0.18 kcal/mol	0.699 ± 0.049 kcal/mol	0.165 ± 0.13 kcal/mol
SPLTLTFENPENGIRVELVFDPETPEVHAKVYAPNGELLSEETFEVEEKKITLRFNLEGKEFELEIELDESA [r9_385_TrMRF]	4.25 ± 0.082 kcal/mol	3.86 ± 0.12 kcal/mol	4.16 ± 0.11 kcal/mol
SAGGMSTTYTLKYPGTTVTVTFNPGSVTVDDTDPANPVTKPLPVPPGKPLTLAEVKAALAAAGYAVAESAGG [r13_687_JUSTAS]	0.0182 ± 0.33 kcal/mol	-0.204 ± 0.15 kcal/mol	0.0161 ± 0.21 kcal/mol
SPVVLPLTLGDRPILARLYPGEGVLEVRDPDGRLVGRATVTPNRINLVFRALDDDTTLVFELPVLPPDDPSA [r9_963_TrMRF]	1.82 ± 0.045 kcal/mol	1.66 ± 0.07 kcal/mol	1.84 ± 0.12 kcal/mol
SAGGSAMTPVTIELPFEVEADDPEEAIKKAKELAEKLGLKPVEIKEIEVEPGNPKKVTVLMKATILSAGGSA [r15_183_JUSTAS]	1.36 ± 0.049 kcal/mol	1.74 ± 0.066 kcal/mol	1.6 ± 0.071 kcal/mol
SEKLVIFVPPNMTVEEIVALAKKYPDKEIVIVMPPNMSEEQKERILKALRDAGLPEGVKVTIVEVEPEDLSA [r9_670_TrROS_Hall]	3.81 ± 0.16 kcal/mol	3.73 ± 0.095 kcal/mol	3.85 ± 0.19 kcal/mol
SAGGSAGGSAGGSFGAVKARFKVEFVARAEDGSLYPVELEFEVEVPVLPPLPFLHPDLFSAGGSAGGSAGGS [r4_325_TrMRF]	2.35 ± 0.038 kcal/mol	1.86 ± 0.051 kcal/mol	2.18 ± 0.068 kcal/mol
SAGGSAGGSPKIKEVKYIPPTGKIEVLIELPNGKPIKVTFDPKIKVNPVFYNGKPIFYFTGNPSAGGSAGGS [r12_789_TrMRF]	1.21 ± 0.073 kcal/mol	0.925 ± 0.015 kcal/mol	1.19 ± 0.076 kcal/mol
